Results from patent publication US20230227520A1 (MAX PLANCK GESELLSCHAFT ZUR F RDERUNG DER WISSENSCHAFTEN E V, published 2023).
Like-named read-outs stand apart in the source and are kept apart here.

Legend:
[1] = molecular target: T1, G-CSFR on NFS-60 cells (murine myeloblastic cell line) (mouse, UniProt P40223 26-837); experiment: cell-based or functional assay
T1 sequence (looked up): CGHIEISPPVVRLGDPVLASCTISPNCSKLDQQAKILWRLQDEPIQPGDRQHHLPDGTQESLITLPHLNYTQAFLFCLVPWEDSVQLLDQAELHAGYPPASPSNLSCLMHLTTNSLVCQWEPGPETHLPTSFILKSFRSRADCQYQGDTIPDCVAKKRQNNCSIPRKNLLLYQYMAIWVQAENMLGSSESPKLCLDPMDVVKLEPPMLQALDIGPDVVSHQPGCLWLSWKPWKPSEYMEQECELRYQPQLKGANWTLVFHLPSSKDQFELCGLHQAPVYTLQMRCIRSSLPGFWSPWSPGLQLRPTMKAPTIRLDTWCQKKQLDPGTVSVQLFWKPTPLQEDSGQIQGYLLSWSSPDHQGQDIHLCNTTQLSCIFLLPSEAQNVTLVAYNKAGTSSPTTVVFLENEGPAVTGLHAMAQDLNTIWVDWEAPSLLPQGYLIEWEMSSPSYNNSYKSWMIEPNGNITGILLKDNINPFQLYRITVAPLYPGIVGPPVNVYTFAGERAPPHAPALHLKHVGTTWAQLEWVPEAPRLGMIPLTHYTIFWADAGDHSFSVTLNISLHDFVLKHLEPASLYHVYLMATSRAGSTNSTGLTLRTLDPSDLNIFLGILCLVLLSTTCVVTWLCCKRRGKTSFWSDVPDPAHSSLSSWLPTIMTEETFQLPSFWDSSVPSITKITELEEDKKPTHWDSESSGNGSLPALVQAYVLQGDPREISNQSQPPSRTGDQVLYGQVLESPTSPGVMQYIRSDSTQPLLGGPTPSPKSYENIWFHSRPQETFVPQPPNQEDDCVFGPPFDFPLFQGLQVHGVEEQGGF

[2] = molecular target: T2, G-CSF Receptor (G-CSFR) (R&D systems 381-GR-050/CF), recombinant human (human, UniProt Q99062 25-627, limits assumed); experiment: SPR, Biacore X100 single-cycle kinetics, G-CSFR amine-coupled on CM5, 1:1 binding model
T2 construct: Bought protein, amine-coupled to a CM5 chip; also called rhG-CSFR; human G-CSF receptor
T2 sequence (looked up): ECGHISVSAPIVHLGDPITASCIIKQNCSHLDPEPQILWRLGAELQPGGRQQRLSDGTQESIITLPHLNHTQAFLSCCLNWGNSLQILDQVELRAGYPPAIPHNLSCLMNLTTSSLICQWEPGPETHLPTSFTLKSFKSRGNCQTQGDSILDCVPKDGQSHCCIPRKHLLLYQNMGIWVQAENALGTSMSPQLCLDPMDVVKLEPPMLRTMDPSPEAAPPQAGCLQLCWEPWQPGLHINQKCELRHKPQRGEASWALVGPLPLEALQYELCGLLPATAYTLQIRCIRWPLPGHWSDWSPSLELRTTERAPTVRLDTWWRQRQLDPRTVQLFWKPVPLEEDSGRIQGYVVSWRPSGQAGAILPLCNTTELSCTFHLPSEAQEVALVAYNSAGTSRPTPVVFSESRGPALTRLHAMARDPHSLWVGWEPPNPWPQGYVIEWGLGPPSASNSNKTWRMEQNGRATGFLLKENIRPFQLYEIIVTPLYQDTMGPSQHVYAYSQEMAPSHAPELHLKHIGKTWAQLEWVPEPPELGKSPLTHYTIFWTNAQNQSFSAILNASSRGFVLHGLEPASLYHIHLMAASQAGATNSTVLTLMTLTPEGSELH
Protocol: To test whether the grafted epitope residues mediate binding of the designs to the G-CSF receptor, the inventors also performed SPR measurements for the Moevan and diSohair2 initial design templates (Moevan_control and diSohair_control, respectively), and no binding was observed (FIG. 20C,F).
Single-cycle kinetics experiments were performed on a Biacore X100 system (GE Healthcare Life Sciences). G-CSF Receptor (G-CSFR) (R&D systems 381-GR-050/CF) was diluted to 50 μg/ml in 10 mM acetate buffer pH 5.0 and immobilized on the surface of a CM5 sensor chip (GE Healthcare 29149604) using standard amine coupling chemistry. The designs and rhG-CSF (USP RS Filgrastim, Sigma-Aldrich 1270435) were diluted in running buffer (10 mM HEPES, 150 mM NaCl, 3.4 mM EDTA, 0.005% v/v Tween-20). Analyses were conducted at 25° C. at a flow rate of 30 μl/min. Five sequential 10-fold increasing concentrations of the sample solution (for the designs from 0.5 nM to 50 μM, and for rhG-CSF from 0.05 to 500 nM) were injected over the functionalized sensor chip surface for 180 s, followed by a 180 s dissociation with running buffer. At the end of each run, the sensor surface was regenerated with a 240 s injection of 10 mM glycine-HCl pH 2.0. Each experiment was performed two times for rhG-CSF, Boskar3, Boskar4, diSohair2, Moevan, and Moevan_t2. Association rate (ka), dissociation rate (kd), and equilibrium dissociation (Kd) constants were initially obtained by global fitting of the experimental reference-subtracted data to a 1:1 interaction model using the Biacore X100 evaluation software (v.2.0.1). To evaluate if a kinetics model that depends on double the analyte stoichiometry improves the goodness of fit to the data, the following rate integral was used: […]

[3] = molecular target: T2, G-CSF Receptor (G-CSFR) (R&D systems …); experiment: SPR (Biacore), G-CSFR immobilised on the chip, Moevan 2 nM - 32 nM as analyte, five traces with binding model fit [panel D]
[4] = molecular target: T1, G-CSFR on NFS-60 cells (murine …); experiment: cell-based or functional assay; remark: listed apart in the source
[5] = molecular target: T2, G-CSF Receptor (G-CSFR) (R&D systems …); experiment: SPR (Biacore), G-CSFR immobilised on the chip, Moevan_t2 2 nM - 32 nM as analyte, five traces with binding model fit [panel E]
[6] = molecular target: T2, G-CSF Receptor (G-CSFR) (R&D systems …); experiment: SPR (Biacore), G-CSFR immobilised on the chip, diSohair2 250 nM - 4000 nM as analyte, five traces with binding model fit [panel B]

B1: Moevan (designed binder)
chain: MEAAAAARDESAYLKLQEQMRKIDADAAALSETRTIEELDTFKLDVADFVTTVVQLAEELEHRFGRNRRGRTEIYKIVKEVDRKLLDLTDAVLAKEKKGEDILNMVAEIKALLINIYK
notes: also called Movean
**Q.** Which “NFS-60 EC50 (ng/mL), proliferation of NFS-60 cells” value (shortened to “NFS-60 EC50 (ng/mL), proliferation”) [1] does the source give for B1 here?
**A.** 356 ng/mL

**Q.** What about the Kd [2] of the same binder?
**A.** 21 nM

**Q.** What about the koff [2] of the same binder?
**A.** 0.0059 s⁻¹

**Q.** What about the kon [2] of the same binder?
**A.** 290000 M⁻¹ s⁻¹

**Q.** What about the Kd [3] of the same binder?
**A.** 21.7 nM

**Q.** What about the koff [3] of the same binder?
**A.** 0.00599 s⁻¹

**Q.** And the kon [3]?
**A.** 275000 M⁻¹ s⁻¹

B2: boskar4_t2 (designed binder)
chain: AALAAALAEIYKGLAEYQARLKSLEGISPELGPALDALRLDMADFATTMAQAMEEGLDSLPQSFLLKALEQIRKIQADAAALREKLAATYKGNDRAAAAVEIAAQLEAFLEKAYQILRHLAAAGGGGSSGGGGSSGGGGSSGGGGSSAALAAALAEIYKGLAEYQARLKSLEGISPELGPALDALRLDMADFATTMAQAMEEGLDSLPQSFLLKALEQIRKIQADAAALREKLAATYKGNDRAAAAVEIAAQLEAFLEKAYQILRHLAAA
**Q.** For B2, which “NFS-60 EC50 (ng/mL), proliferation” value [4] is on record?
**A.** 4.2 ng/mL

B3: Boskar_2 (designed binder)
chain: AALAAELAEIMKGLQEYQARLKSLEGISPELGPALDALRLDMADFATTMAQMMEENPSDLPQSFLLKALEQIRKIQADAAALREKLAATYPNSQRAAAAVEIAAQLEAFLEKAYQILRHLAAA
**Q.** B3 was tested. Which “NFS-60 EC50 (ng/mL), proliferation” value [1] did it give?
**A.** 3220 ng/mL

B4: boskar4_15rl (designed binder)
chain: AALAAALAEIYKGLAEYQARLKSLEGISPELGPALDALRLDMADFATTMAQAMEGGGGSGGGGSGGGGSQSFLLKALEQIRKIQADAAALREKLAATYKGNDRAAAAVEIAAQLEAFLEKAYQILRHLAAA
**Q.** B4 was tested. Which “NFS-60 EC50 (ng/mL), proliferation” value [4] did it give?
**A.** 48.5 ng/mL

B5: Moevan_t2 (designed binder)
chain: EAAAAARDESAYLKLQEQMRKIDADAAALSETRTIEELDTFKLDVADFVTTVVQLAEELEHRFGRNRRGRTEIYKIVKEVDRKLLDLTDAVLAKEKKGEDILNMVAEIKALLINIYKGGGGSSGGGGSSGGGGSSGGGGSSEAAAAARDESAYLKLQEQMRKIDADAAALSETRTIEELDTFKLDVADFVTTVVQLAEELEHRFGRNRRGRTEIYKIVKEVDRKLLDLTDAVLAKEKKGEDILNMVAEIKALLINIYK
notes: Tandem fusion of two Moevan copies joined by a 24 amino acid GS linker
**Q.** Which results are given for B5?
**A.** Kd [5]: 1.2 nM; koff [5]: 0.00036 s⁻¹; kon [5]: 300000 M⁻¹ s⁻¹; NFS-60 EC50 (ng/mL), proliferation of NFS-60 cells [4]: 47.1 ng/mL; Kd [2]: 1.1 nM; koff [2]: 0.0003 s⁻¹; kon [2]: 310000 M⁻¹ s⁻¹

B6: Boskar_1 (designed binder)
chain: AALAAELAEIYKGLAEYQARLQSLEGISPELGPALDALRLDVADFATTLAQAMEEKKTNLPQSFLLKALEQIRKIQADAAALREKLAATYTGTDRAAAAVEIAAQLEAFLEKAYEILRHLAAA
**Q.** Which “NFS-60 EC50 (ng/mL), proliferation” value [1] does the source give for B6 here?
**A.** 2170 ng/mL

B7: Disohair_1 (designed binder)
chain: MTSDYIIEQIQRKQEEARLKVEEMERKLEEVKEASKRGVSSDQLLNLILDLADIITTLIQIIEESNEAIKELIKNQ
**Q.** With B7 as the binder, how does the “NFS-60 EC50 (ng/mL), proliferation” value [1] read?
**A.** 2380 ng/mL

B8: Disohair_2 (designed binder)
chain: MTSDYIIEQIQRKQEEARLKVEEQERKLEAVKEASKRGVSSDQLLNLILDLADIITTLIQIIEESNEAIKELIKNQ
notes: Expressed with an N-terminal hexa-His-tag and thrombin site
**Q.** What does the source list for B8?
**A.** NFS-60 EC50 (ng/mL), proliferation of NFS-60 cells [1]: 396 ng/mL; Kd [6]: 4550 nM; koff [6]: 0.00949 s⁻¹; kon [6]: 2080 M⁻¹ s⁻¹; Kd [2]: 4500 nM; koff [2]: 0.0095 s⁻¹; kon [2]: 2100 M⁻¹ s⁻¹

B9: sohair2_15r (designed binder)
chain: MTSDYIIEQIQRKQEEARLKVEEQERKLEAVKEASKRGVSSDQLLNLILDLADIITTLIQIIEESNEAIKELIKNQGGGGSGGGGSGGGGSDYIIEQIQRKQEEARLKVEEQERKLEAVKEASKRGVSSDQLLNLILDLADIITTLIQIIEESNEAIKELIKNQ
**Q.** How did the “NFS-60 EC50 (ng/mL), proliferation” value [4] turn out when B9 was run?
**A.** 228 ng/mL

B10: moevan_st2 (designed binder)
chain: EAAAAARDESAYLKLQEQMRKIDADAAALSETRTIEELDTFKLDVADFVTTVVQLAEELEHRFGRNRRGRTEIYKIVKEVDRKLLDLTDAVLAKEKKGEDILNMVAEIKALLINIYKGGGGSSEAAAAARDESAYLKLQEQMRKIDADAAALSETRTIEELDTFKLDVADFVTTVVQLAEELEHRFGRNRRGRTEIYKIVKEVDRKLLDLTDAVLAKEKKGEDILNMVAEIKALLINIYK
**Q.** Which “NFS-60 EC50 (ng/mL), proliferation” value [4] does the source give for B10 here?
**A.** 8.89 ng/mL

B11: Sohair (designed binder)
chain: MTSDYIIEQIQRKQEEARLKVEEMERKLEAVKEASKRGVSSDQLLNLILDLADIITTLIQIIEESNEAIKELIKNQKGPTSDYIIEQIQRDQEEARKKVEEAEERLERVKEASKRGVSSDQLLDLIRELAEIIEELIRIIRRSNEAIKELIKNQ
**Q.** With B11 as the binder, how does the “NFS-60 EC50 (ng/mL), proliferation” value [1] read?
**A.** 5050 ng/mL

B12: bika1 (designed binder)
chain: SKEVLEQSLFLKLDEQVRKLLADIHAIKIDRITGNMDKQKLDTAYLDVADIETTLYQLIEVSH
**Q.** With B12 as the binder, how does the “NFS-60 EC50 (ng/mL), proliferation” value [4] read?
**A.** 63 ng/mL

B13: bika2 (designed binder)
chain: SKEVLEQSLFLKLDEQVRKLLADIHAIKIDRITGNMDKQKLDTLYLDVADIETTLYQLIEVSH
**Q.** For B13, which “NFS-60 EC50 (ng/mL), proliferation” value [4] is on record?
**A.** 98 ng/mL

B14: boskar4_st2 (designed binder)
chain: AALAAALAEIYKGLAEYQARLKSLEGISPELGPALDALRLDMADFATTMAQAMEEGLDSLPQSFLLKALEQIRKIQADAAALREKLAATYKGNDRAAAAVEIAAQLEAFLEKAYQILRHLAAAGGGGSSAALAAALAEIYKGLAEYQARLKSLEGISPELGPALDALRLDMADFATTMAQAMEEGLDSLPQSFLLKALEQIRKIQADAAALREKLAATYKGNDRAAAAVEIAAQLEAFLEKAYQILRHLAAA
**Q.** Which “NFS-60 EC50 (ng/mL), proliferation” value [4] does the source give for B14 here?
**A.** 0.202 ng/mL
